Literature values in publication PMC6143783.

Assays:
[1] = target: GABAA receptor α3 TM3-TM4 loop (Homo sapiens) (UniProt P34903); assay: ITC
[2] = target: GABAA receptor α1 TM3-TM4 loop (Homo sapiens) (UniProt P14867); assay: ITC
Chain of GABAA receptor α1 TM3-TM4 loop (Homo sapiens) (P14867 334-420): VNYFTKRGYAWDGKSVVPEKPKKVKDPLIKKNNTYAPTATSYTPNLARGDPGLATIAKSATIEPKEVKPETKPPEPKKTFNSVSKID

Chain of gephyrin (Q03555 whole entry): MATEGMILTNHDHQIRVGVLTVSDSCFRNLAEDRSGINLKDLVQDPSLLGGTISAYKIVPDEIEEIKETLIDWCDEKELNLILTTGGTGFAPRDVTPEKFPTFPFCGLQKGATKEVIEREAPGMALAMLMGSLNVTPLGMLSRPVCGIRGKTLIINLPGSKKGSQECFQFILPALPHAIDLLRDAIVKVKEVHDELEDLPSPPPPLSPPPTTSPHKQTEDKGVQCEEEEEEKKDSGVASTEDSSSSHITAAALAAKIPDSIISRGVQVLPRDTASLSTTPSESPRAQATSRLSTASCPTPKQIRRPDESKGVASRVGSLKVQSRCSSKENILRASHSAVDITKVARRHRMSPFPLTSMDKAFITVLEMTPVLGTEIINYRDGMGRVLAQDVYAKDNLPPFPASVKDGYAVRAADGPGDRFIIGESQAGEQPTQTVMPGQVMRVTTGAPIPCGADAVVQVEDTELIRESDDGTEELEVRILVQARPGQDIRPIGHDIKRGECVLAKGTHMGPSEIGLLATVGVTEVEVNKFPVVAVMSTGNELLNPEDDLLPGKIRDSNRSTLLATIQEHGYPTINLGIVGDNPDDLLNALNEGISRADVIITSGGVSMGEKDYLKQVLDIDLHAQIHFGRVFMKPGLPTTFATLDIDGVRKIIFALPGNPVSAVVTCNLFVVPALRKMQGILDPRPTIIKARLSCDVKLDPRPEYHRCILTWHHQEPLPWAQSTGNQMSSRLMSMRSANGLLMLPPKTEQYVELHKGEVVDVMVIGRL
Chain of GABAA receptor α3 TM3-TM4 loop (Homo sapiens) (P34903 359-457): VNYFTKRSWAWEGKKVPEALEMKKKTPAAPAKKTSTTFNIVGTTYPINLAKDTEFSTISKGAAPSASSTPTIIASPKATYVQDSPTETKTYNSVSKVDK

In the case of gephyrin (from UniProt Q03555), the Kd [1] is listed as 5.3 µM and the Kd [2] is listed as 17 µM.
